This note sets out measurements from patent US20260043816A1 (AC IMMUNE, published 2026).

Assay [1] has as its target T1, recombinant full length TDP-43 (SEQ ID NO: 1, FL TDP-43) (human, UniProt Q13148 1-414).
T1 construct: also called recombinant human soluble FL TDP-43; soluble human TDP-43
As to the kind of experiment: pairing sandwich ELISA, antibody coated as capture, FL TDP-43 titrated. The method, then: The capacity of antibodies to bind phospho TDP-43 and TDP-43 was determined using a sandwich enzyme-linked immunosorbent assay (ELISA), where each antibody was paired with a second TDP-43 antibody previously characterized for TDP-43 binding and performance in sandwich immunoassays, ACI-7071-809F12-Ab1-rec2 (as described in WO2020234473) or ACI-7069-636E5-Ab1 (as described in WO2020234473). ELISA plates (Nunc™ Edge™ 96-Well, Non-Treated, Flat-Bottom Microplate, ThermoFisher Scientific, Denmark) were coated with 5 μg/mL of anti-phospho TDP-43 or anti-TDP-43 antibodies in carbo/bicarbonate buffer, overnight at 4° C. Plates were then washed with 0.05% Tween-20/PBS and blocked with 1% bovine serum albumin (BSA) in 0.05% Tween-20/PBS for 1 hour at 37° C. The plates were then washed again as described above.
Serial-dilutions of target peptide or protein were then added to the plates. For assays with anti-phospho TDP-43 antibodies, one of four peptide conjugates (peptides 11, 23, 28, or 29) each composed of two TDP-43 sequences, one phosphorylated and one non-phosphorylated, conjugated together with a Trioxatridecan-succinamic acid linker (Ttds, binding regions and sequences shown in Table 4) were used. Peptides 11, 23, 28, and 29 were added in a 10-fold serial dilution starting at 0.5 μM. For assays with TDP-43 antibodies only, recombinant full length TDP-43 (SEQ ID NO: 1, FL TDP-43) was diluted 3-fold from 21.9 pM. Plates were incubated for 1 hour at 37° C., and then washed. […] PEG-biotinylated phospho TDP-43 or TDP-43 antibodies were then respectively added to the wells and incubated for 1 hour at 37° C., after which the plates were washed. Horseradish peroxidase (HRP)-conjugated streptavidin (R&D Systems, Switzerland) was added at 1/200 dilution in 1% BSA and 0.05% Tween-20/PBS for 45 min at room temperature. […] The plate was read at 450 nm using an ELISA plate reader (Tecan, Switzerland).
For orientation: An ELISA detects its analyte on a solid surface through an enzyme-linked reagent.

Assay [2] deals with T2, TDP-43 peptide consisting of amino acid sequence (SEQ ID NO: 5) (comprising pS375 and pS379) (human).
T2 construct: also called target peptide
T2 peptide: GNNSY[pS]GSN[pS]GAAIG
As to the kind of experiment: SPR, antibody on chip, peptide analyte. The protocol:
For antibodies ACI-8070-942.30D12-Ab1 and ACI-7071-809F12-Ab1-rec2 affinity was measured on Biacore 5200 instrument (Cytiva, Switzerland). The instrument was primed with running buffer HBS-P+ (10× HBS-P+ diluted to 1× in Milli-Q water) and flow-cells (Fc) 1-4 of a CM7 Series S sensor chip (Cytiva, 29147020) were activated with a fresh solution of EDC/NHS (Amine Coupling Kit type 2, BR100633, Cytiva) 1:1 ratio of both reagents at 10 μL/min for 420 sec and polyclonal rabbit anti-mouse IgG antibody (Cytiva, 29215281) was immobilized at […] in 10 mM sodium acetate pH 5.0 for 420 sec. Next, all Fc were quenched with 1 M ethanolamine (Cytiva, BR100633) for 420 sec. Immobilization levels were evaluated following ethanolamine quenching. A mouse IgG2a isotype control antibody and ACI-8070-942.30D12-Ab1 were captured on Fc 1 and Fc 2, respectively. Antibodies were diluted in 10 mM sodium acetate pH5.5 to a final concentration of 50 μg/mL and injected using the aim immobilization level functionality with a target of 10000 RU. […] Results obtained from single-cycle kinetics were double-referenced using the blank Fc 1 and buffer cycles and evaluated using the Biacore Insight Evaluation software (Cytiva). […]
For orientation: In SPR one partner is held on a chip, and binding of the other changes the refractive index at the surface.

In a further assay the target is T3, Peptide 29 (human, phosphoserine at pS409 and pS410 (human TDP-43 numbering, in the SEQ ID NO: 9 part); Trioxatridecan-succinamic acid (Ttds) linker between SEQ ID NO: 7 and SEQ ID NO: 9).
T3 peptide: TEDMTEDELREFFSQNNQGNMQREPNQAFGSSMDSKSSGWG
As to the kind of experiment: SPR Biacore 8K, antibody captured, peptide analyte, single-cycle kinetics, 1:1 fit. The protocol: (§1) Each cycle started with the non-covalent capture of the antibody which were diluted in running buffer to a final concentration of 5 μg/mL and injected for 120 sec with a flow rate of 10 μL/min. Antibodies being measured were captured in channels […], leaving Fc 1 as a blank Fc. Capture levels were evaluated following a 120 sec stabilization period after each antibody injection. ACI-7071-809F12-Ab1-rec2 was used as control, binding to the non-phosphorylated sequences represented in peptides 28 and 29.
(§2) Injections of peptides 28 or 29 were performed using single-cycle kinetics with increasing concentrations ranging from 1.2 to 100 nM prepared as a 3-fold serial dilution. Injections were performed with contact times of 300 sec/injection at a flow rate of 30 μL/min. A dissociation phase of 900 sec followed the final injection. Sensor surface was regenerated by two injection of 10 mM Glycine-HCl pH 1.7 at a flow rate of 10 μL/min for 60 sec, followed by a stabilization period of 120 sec. Results obtained from single-cycle kinetics were double-referenced using the blank Fc 1 and buffer cycles and evaluated by Biacore 8K evaluation software (Cytiva). The following kinetic parameters were obtained using the 1:1 binding fit model with variable Reflective Index (RI): association rate constant (ka), dissociation rate constant (kd), affinity constant (KD) and saturation response (Rmax).

Another assay deals with T4, Peptide 28 (human, phosphoserine at pS403 and pS404 (human TDP-43 numbering, in the SEQ ID NO: 8 part); Trioxatridecan-succinamic acid (Ttds) linker between SEQ ID NO: 7 and SEQ ID NO: 8).
T4 peptide: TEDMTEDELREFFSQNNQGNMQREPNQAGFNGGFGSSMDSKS
Described as above. The method, then:
as §1, §2

Square brackets hold non-standard residues; d marks the D form. Ends that are not written are not given here. pS = N[C@@H](COP(=O)(O)O)C(=O)O

Usually EC50 stands for the midpoint of the concentration-response curve. Usually Kd stands for the free concentration of one partner at which half of the binding sites on the other are occupied at equilibrium, for simple one-to-one binding. A lower Kd goes with higher affinity. Broadly, the koff is a measure of how fast the partners let go of each other. The term kon denotes a measure of how fast the partners come together.

B1: ACI-7071-809F12-Ab1-rec2 (as described in WO2020234473) (antibody, V domains shown)
VH: QVQLKESGPGLVAPSQSLSITCTVSGFSLNRNGVQWVRQPPGKGLEWLGVIWPGGSTNCNSALMSRLSISKDNSKSQVFLKMNSLHTDDTGIYYCARVGGNYVWDYNNYAWGQGTLVTVSA
VL: DVLMTQTPLSLPVSLGDQASISCRSSQNIVHSIGNTYLEWYLQKPGQSPKLLIYKVSNRFSGVPDRFSGSGSGTDFTLKISRVEAEDLGVYYCFQGSHVPYTFGGGTKLEIR
notes: also called 809F12D8
Consider B1, for which the EC50 in assay [1] worked out at 0.181 nM. Further, in assay [2], the binding result is recorded as “no binding”. For the same molecule, in the assay with Peptide 29, the Kd turned out to be 7 nM, the koff was determined as 0.00343 s⁻¹ and the kon stood at 490000 M⁻¹ s⁻¹. In the assay with Peptide 28, this molecule displayed a Kd of 4.5 nM, a koff of 0.00231 s⁻¹ and a kon of 514000 M⁻¹ s⁻¹.
